39 sequences from the supplement of paper PMC7877785 can be followed below.

± gives the uncertainty stated by the source.

This data set can be described thus: self-splicing fitness, log relative to wild type (ln ratio); higher = more splicing; Tetrahymena group I intron in knt gene, E. coli kanamycin selection, DiMSum; sequences stand for … in CUCUCU…GGAGGGAAAAGUUAUCAGGCAUGCACCUGGUAGCUAGUCUUUAAACCAAUAGAUUGCAUCGGUUUAAAAGGCAAGACCGUCAAAUUGCGGGAAAGGGGUCAACAGCCGUUCAGUACCAAGUCUCAGGGGAAACUUUGAGAUGGCCUUGCAAAGGGUAUGGUAAUAAGCUGACGGACAUGGUCCUAACCACGCAGCCAAGUCCUAAGUCAACAGAUCUUCUGUUGAUAUGGAUGCAGUUCACAGACUAAAUGUCGGUCGGGGAAGAUGUAUUCUUCUCAUAAGAUAUAGUCGGACCUCUCCUUAAUGGGAGCUAGCGGAUGAAGUGAUGCAACACUGGAGCCGCUGGGAACUAAUUUGUAUGCGAAAGUAUAUUGAUUAGUUUUGGAGUACUCGUGGUCG
In outline:
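DiMSum derived fitness as the error-weighted combination of fold changes across replicates, kanamycin versus no kanamycin, normalised to wild type. E. coli BL21(DE3) held the library, which randomised all eight P1ex-region intron nucleotides within the knt kanamycin-resistance gene on pET-22b(+). Six replicate transformations grew overnight at 37°C or 30°C on LB agar with or without 25 μg/mL kanamycin, also containing 100 μg/mL carbenicillin, 50 μM IPTG and 0.2% rhamnose, and pooled colonies were amplicon-sequenced on an Illumina HiSeq 2500.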

As to AGUGAGCAAUAUUACGCACU, the “self-splicing fitness (ln)” value by setting is: (30 °C) -2.97 ± 0.44; (37 °C) -2.24 ± 0.38.

For GGCUAGCAAUAUUACGAUUG, the “self-splicing fitness (ln)” value (30 °C) was -1.67 ± 0.12 and the “self-splicing fitness (ln)” value (37 °C) is -1.47 ± 0.13.

Consider CCCCAGCAAUAUUACGCCCA, for which the “self-splicing fitness (ln)” value runs as follows: (30 °C) -2.11 ± 0.26; (37 °C) -1.37 ± 0.25.

As for ACUCAGCAAUAUUACGGAGU, the “self-splicing fitness (ln)” value is -2.78 ± 0.11 (30 °C) and -2.7 ± 0.18 (37 °C).

For GCUAAGCAAUAUUACGAUCG, the “self-splicing fitness (ln)” value by setting is: (30 °C) -1.1 ± 0.1; (37 °C) -0.997 ± 0.12.

Consider AAAUAGCAAUAUUACGAAUG, for which the “self-splicing fitness (ln)” value was -1.37 ± 0.12 (30 °C) and -1.62 ± 0.16 (37 °C).

Consider UACUAGCAAUAUUACGGCUC, for which the “self-splicing fitness (ln)” value (30 °C) was -1.67 ± 0.19 and the “self-splicing fitness (ln)” value (37 °C) was -0.765 ± 0.18.

For GUAGAGCAAUAUUACGUCUG, the “self-splicing fitness (ln)” value by setting is: (30 °C) -1.6 ± 0.15; (37 °C) -1.58 ± 0.21.

For the sequence AGAAAGCAAUAUUACGUGCU, the “self-splicing fitness (ln)” value runs as follows: (30 °C) -0.713 ± 0.063; (37 °C) -1.28 ± 0.092.

As for GACGAGCAAUAUUACGGAAG, the “self-splicing fitness (ln)” value by setting is: (30 °C) -2.39 ± 0.23; (37 °C) -2.5 ± 0.31.

Regarding AUAGAGCAAUAUUACGCGAC, the “self-splicing fitness (ln)” value was -2.44 ± 0.18 (30 °C) and -1.3 ± 0.17 (37 °C).

Regarding GAUAAGCAAUAUUACGGUGG, the “self-splicing fitness (ln)” value was -2.85 ± 0.23 (30 °C) and -2.24 ± 0.2 (37 °C).

Take GUACAGCAAUAUUACGGUAA: the “self-splicing fitness (ln)” value reads like this: (30 °C) -0.865 ± 0.13; (37 °C) -0.97 ± 0.12.

As for AUGUAGCAAUAUUACGCUUC, the “self-splicing fitness (ln)” value is -2.5 ± 0.23 (30 °C) and -2.2 ± 0.28 (37 °C).

Regarding CUCCAGCAAUAUUACGAGUA, the “self-splicing fitness (ln)” value is, setting by setting: (30 °C) -2.58 ± 0.16; (37 °C) -2.14 ± 0.14.

On to GCUCAGCAAUAUUACGACAU, for which the “self-splicing fitness (ln)” value was -0.812 ± 0.012 (30 °C) and -0.159 ± 0.032 (37 °C).

For CAUGAGCAAUAUUACGACAC, the “self-splicing fitness (ln)” value (37 °C) is -1.19 ± 0.31.

For the sequence ACGGAGCAAUAUUACGGGGG, the “self-splicing fitness (ln)” value (37 °C) is -1.58 ± 0.29.

Turning to GCCGAGCAAUAUUACGCGAC, the “self-splicing fitness (ln)” value is, setting by setting: (30 °C) -2.44 ± 0.21; (37 °C) -2.26 ± 0.35.

In the case of UUAAAGCAAUAUUACGUUGA, the “self-splicing fitness (ln)” value was -0.721 ± 0.066 (30 °C) and -0.0751 ± 0.094 (37 °C).

For the sequence AAAUAGCAAUAUUACGGUAU, the “self-splicing fitness (ln)” value reads like this: (30 °C) -1.69 ± 0.1; (37 °C) -0.496 ± 0.12.

For AGGAAGCAAUAUUACGCAUC, the “self-splicing fitness (ln)” value (37 °C) was -1.85 ± 0.41.

Consider AUAUAGCAAUAUUACGAUCC, for which the “self-splicing fitness (ln)” value (30 °C) was -0.6 ± 0.16 and the “self-splicing fitness (ln)” value (37 °C) was -0.578 ± 0.28.

For CGUGAGCAAUAUUACGCGAA, the “self-splicing fitness (ln)” value is, setting by setting: (30 °C) -2.35 ± 0.14; (37 °C) -3.33 ± 0.29.

On to UUUUAGCAAUAUUACGAGUA, for which the “self-splicing fitness (ln)” value was -1.55 ± 0.27 (30 °C) and -0.821 ± 0.29 (37 °C).

Turning to ACAUAGCAAUAUUACGCACU, the “self-splicing fitness (ln)” value is, setting by setting: (30 °C) -0.38 ± 0.083; (37 °C) 0.676 ± 0.1.

For AGGGAGCAAUAUUACGUAUU, the “self-splicing fitness (ln)” value (30 °C) was -2.96 ± 0.18 and the “self-splicing fitness (ln)” value (37 °C) is -2.15 ± 0.21.

As to CGACAGCAAUAUUACGCCUU, the “self-splicing fitness (ln)” value (30 °C) was -2.4 ± 0.22 and the “self-splicing fitness (ln)” value (37 °C) is -1.61 ± 0.23.

With GUUGAGCAAUAUUACGAGGU, the “self-splicing fitness (ln)” value (30 °C) is -3.2 ± 0.28.

Consider GAGCAGCAAUAUUACGGCUG, for which the “self-splicing fitness (ln)” value runs as follows: (30 °C) -3.87 ± 0.26; (37 °C) -2.51 ± 0.28.

CCGAAGCAAUAUUACGACGU: the “self-splicing fitness (ln)” value reads like this: (30 °C) -1.03 ± 0.08; (37 °C) 0.0423 ± 0.092.

Take ACGUAGCAAUAUUACGGUAG: the “self-splicing fitness (ln)” value (30 °C) was -3.11 ± 0.15 and the “self-splicing fitness (ln)” value (37 °C) was -2.25 ± 0.2.

In the case of ACUGAGCAAUAUUACGCGUA, the “self-splicing fitness (ln)” value was -1.8 ± 0.15 (30 °C) and -3.16 ± 0.28 (37 °C).

With UCAAAGCAAUAUUACGGACA, the “self-splicing fitness (ln)” value was -0.451 ± 0.13 (30 °C) and 0.0835 ± 0.14 (37 °C).

On to GUGAAGCAAUAUUACGAGAU, for which the “self-splicing fitness (ln)” value by setting is: (30 °C) -2.25 ± 0.16; (37 °C) -0.51 ± 0.19.

With CGUAAGCAAUAUUACGGUAG, the “self-splicing fitness (ln)” value by setting is: (30 °C) -2.56 ± 0.14; (37 °C) -1.4 ± 0.1.

Regarding GAUAAGCAAUAUUACGAUGG, the “self-splicing fitness (ln)” value is, setting by setting: (30 °C) -3.06 ± 0.31; (37 °C) -0.54 ± 0.21.

With CGGCAGCAAUAUUACGGUAU, the “self-splicing fitness (ln)” value (30 °C) is -3.82 ± 0.19 and the “self-splicing fitness (ln)” value (37 °C) is -3.18 ± 0.22.

For the sequence AUGCAGCAAUAUUACGUACU, the “self-splicing fitness (ln)” value (30 °C) stood at 0.346 ± 0.055 and the “self-splicing fitness (ln)” value (37 °C) was found to be 0.441 ± 0.07.
